Results: article doi:10.1101/2024.03.12.584703

Target: VCAP-102 capsid (adeno-associated virus 9) (UniProt Q6JC40)
Assay: SPR

B1: His-tagged human ALPL (recombinant) (receptor)
chain: LVPEKEKDPKYWRDQAQETLKYALELQKLNTNVAKNVIMFLGDGMGVSTVTAARILKGQLHHNPGEETRLEMDKFPFVALSKTYNTNAQVPDSAGTATAYLCGVKANEGTVGVSAATERSRCNTTQGNEVTSILRWAKDAGKSVGIVTTTRVNHATPSAAYAHSADRDWYSDNEMPPEALSQGCKDIAYQLMHNIRDIDVIMGGGRKYMYPKNKTDVEYESDEKARGTRLDGLDLVDTWKSFKPRYKHSHFIWNRTELLTLDPHNVDYLLGLFEPGDMQYELNRNNVTDPSLSEMVVVAIQILRKNPKGFFLLVEGGRIDHGHHEGKAKQALHEAVEMDRAIGQAGSLTSSEDTLTVVTADHSHVFTFGGYTPRGNSIFGLAPMLSDTDKKPFTAILYGNGPGYKVVGGERENVSMVDYAHNNYQAQSAVPLRHETHGGEDVAVFSKGPMAHLLHGVHEQNYVPHVMAYAACIGANLGHCAPAS
Kd: 20 nM
